Results: patent US20230357378A1 (NEURACLE SCIENCE, published 2023)
One block for each binder: values may come before it.

What was measured:
Peptide F6-BSA = molecular target: T1, Peptide F6-BSA (C-terminal Cys conjugated to BSA); assay: Western blot, 300 ng antigen per well, anti-rabbit IgG (Fc specific)-HRP 1:4000
T1 construct: BSA-conjugated human FAM19A5 peptide fragment F6, lane 8; size printed as 103 kDa
T1 peptide: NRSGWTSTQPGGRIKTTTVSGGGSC

Peptide F4-BSA = molecular target: T2, Peptide F4-BSA (C-terminal Cys conjugated to BSA); assay: as above
T2 construct: BSA-conjugated human FAM19A5 peptide fragment F4, lane 6; size printed as 106 kDa
T2 peptide: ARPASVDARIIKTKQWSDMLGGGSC

Peptide F1-BSA = molecular target: T3, Peptide F1-BSA (C-terminal Cys conjugated to BSA); assay: as above
T3 construct: BSA-conjugated human FAM19A5 peptide fragment F1, lane 3; size printed as 105 kDa
T3 peptide: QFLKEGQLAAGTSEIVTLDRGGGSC

FAM19A1-flag = assay: immunoblot of vector and flag-tagged FAM19A1 to FAM19A5 samples

binding result (Peptide F6-BSA): no binding (tested: 2 ug/ml)
binding result (Peptide F4-BSA): no binding (tested: 2 ug/ml)
binding result (Peptide F1-BSA): no binding (tested: 2 ug/ml)
B1: 1-65-scFv-rabbit-Fc-SSS (Fc fusion)
VH: AVTLDESGGGLQTPGGALSLVCKASGFTFSSYQMGWVRQAPGKGLEWVGVINKSGSDTSYGSAVKGRATISRDNGQSTVRLQLNNLRAEDTGTYFCAKGSASYITAATIDAWGHGTEVIVSS
VL: ALTQPSSVSANPGETVKITCSGGGSSGYGYGWYQQKSPSSAPLTVIYWNDKRPSDIPSRFSGSKSGSTHTLTITGVQAEDEAVYFCGNDDYSSDSGYVGVFGAGTTLTVL
notes: scFv of 1-65 fused to rabbit Fc ('SSS'), used as primary antibody in the Western blot; also called anti-FAM19A5 antibody 1-65; monoclonal antibody clone 1-65

binding result (FAM19A1-flag): no binding
B2: chimeric anti-FAM19A5-IgG2/4 monoclonal antibody (1-65) (antibody, V domains shown)
VH: B1 VH
VL: B1 VL
notes: also called anti-FAM19A5-IgG2/4 antibody
